# B1: TPR t1 (parent)
# chain: GACCAAUCUGCCCUCAGAGCUCGAGAACAUCUUCGGAUGCAGAGGAGGCAGGCUUCGGUGGCGCGAUAGCGCCAACGUCCUCAACCUCCAAUGCAUCCCACCACAUGAUGAUGCCUGAAGAGCCUUGGUUUUUUG
# Variants of: B1
# Assay: polymerase ribozyme fitness, log enrichment relative to wild type (log ratio); higher = more active; in vitro selection for triplet polymerase activity
# Summary of the method: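 One round of in vitro selection, in triplicate, was applied to PCR-built, transcribed mutant libraries of each subunit of a heterodimeric triplet polymerase ribozyme. The steps were annealing with a biotinylated primer, partner subunit and triplets, incubation frozen at −7 °C, gel excision of extended constructs, streptavidin-bead capture and RT-PCR. Fitness is the logarithm, base 2, of genotype enrichment over wild-type enrichment from inverse-variance-weighted replicate averages of Illumina-sequenced inputs and outputs, keeping genotypes with ≥10 input reads and ≥1 read per output.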
row,Variant,polymerase ribozyme fitness (log ratio)
1,G17A C86G,-4.48
2,A16G C53G U87G U96A U112A,-1.33
3,A16G G47A,-2.15
4,A16U G113A,-3.61
5,G17A C70U,-3.03
6,A16U C89U,-1.23
7,A16U G52U G117A U130C U131G,-4.01
8,G17U C123A,-1.2
9,G17U C97U,-3.45
10,G17C U129A,-5.13
11,A16G C49A C88A C99A C102U C114U,-4.49
12,G17C U133G G135U,-3.94
13,G17U C70G,-4.78
14,G17A C80U,-3.53
15,G17A C80A,-5.66
16,G17U G63U U133A,-3.87
17,G17C G35A C123G G128U,-4.31
18,A16U G17A G117A,-2.04
19,A16G C70A A95C,-4.17
20,G17C G63U,-4.39
21,A16G U92G C98G C114A,-6.53
22,G17A G71U,-3.07
23,G17U C40A G48U C70U C99A G113A G117C,-6.87
24,G17A G63U U133C,-3.8

row,Variant,polymerase ribozyme fitness (log ratio)
1,A16U C20A C73G G117U A119U,-5.33
2,A16U C62G C123A,-3
3,G17U G61C,-3.76
4,G17A G52C G60C U81C C115G,-3.56
5,A16U,-1.46
6,G17A G120U,-1.62
7,G17C A46G C124A,-1.43
8,G17C A43C A83U,-6.26
9,G17U G63U C73U,-4.41
10,A16G C86U,-1.54
11,G17A U55G C123A,-2.36
12,G17U C20G G52A G113A A119G,-2.03
13,A16U G69U G71U G117C,-4.04
14,G17C A50C U81A C114U G120U,-5.67
15,G17A G61U C85A C97U,-4.18
16,A16U C20A C64U U87C U130C,-4.77
17,G17C U54G G61A C94A U112G,-6.29
18,A16U C34A C64A U109G C123A U129G,-6.08
19,G17U A46U C53G G63C A83C C85G C89U A121C C123U U126A,-6.58
20,A16G C73A A90C,-3.02
21,A16U A29U U54A G63U,-3.53
22,G17A A46C,-3.18
23,G17A C53A C104U U133A,-2.46
24,A16U A41G U78G A100U,-3.98

row,Variant,polymerase ribozyme fitness (log ratio)
1,G17U A37U G60A C82U,-2.4
2,A16G G60A U81A G117U,-4.21
3,A16U C123U,0.19
4,A16U C123A,-1.57
5,G17A G69A C102U C114G U131G,-6.68
6,G17U G63A U81A G110C,-6.98
7,G17A G42U G57A G120C,-3.79
8,G17C U78A A111U,-6.19
9,G17A A46C G63U A74U C89G C102U A105U,-7.26
10,G17A G63A,-4.79
11,A16G G60U G107U C124G,-4.06
12,G17A A43U C73G G120A,-3.38
13,A16U C62A A105C,-4.73
14,G17U G63C,-3.04
15,G17A G69C,-3.95
16,G17U C20U A26G G42C A83U C124U U130G,-5.83
17,A16G G60U A90U,-2.82
18,G17C A46G U55C,-5.15
19,A16U G23U G61A A84C C114A G117U,-6.96
20,A16U C73U G93C U96A,-4.76
21,A16U C56G U125A,-3.24
22,A16U C73A,-2.64
23,G17U C49U G93A,-4.22
24,G17U A29G A37U U112G,-3.31

row,Variant,polymerase ribozyme fitness (log ratio)
1,A16U C56A G69U G117U,-2.35
2,G17A A43G,-3.39
3,A16U U32A A46U A103C A111G,-5.71
4,A16G U54C,-1.39
5,G17C C72U C88A,-4.4
6,G17U A41C G61A C89A,-4.06
7,G17U C70A C88A A90G,-4.06
8,A16U G69U A121C,1.22
9,A16G G69U C73A C115U,-1.93
10,A16U A41G G63U C115U,-4.47
11,G17A U78C,-3.04
12,A16G C70U C115A U125C,-2.39
13,G17A C40U,-3.88
14,G17U G69U A111G U133G,0.0717
15,A16U A50G U96A U112C G127C,-2.27
16,A16U G60C,-2.17
17,G17U C49U C124G G127C,-0.942
18,A16U U92A A111C,-4.66
19,G17A C53A C124G,-0.146
20,A16U G47C G71U,-4.17
21,A16U U116C,-0.734
22,G17A A91C G93C G120C U131C,-1.37
23,A16U C56G C115A,-4.04
24,G17A C53U C89U C101A U109G,-6.85

row,Variant,polymerase ribozyme fitness (log ratio)
1,A16U C72A,-1.32
2,A16G G47C C56U A74U A121G G128C,-3.74
3,A16U A37U G69U U106C G120U,-0.0765
4,A16U C56U U87A A103U U112A,-4.76
5,A16U G47U G60U U112G,-1.75
6,A16U G110A,-2.07
7,A16U C56A,-1.97
8,G17A A43U C88A U96A U129A,-3.98
9,A16U A37C G71U A111U,-5.61
10,A16U C82A,-2.02
11,G17U G47U,-5.05
12,G17A G39U G113C,-6.88
13,A16U C79U G110A,-2.61
14,G17A C79U U106A A111C,-4.21
15,G17A G63U A90C U112A,-5.03
16,G17A G60U C79A,-5.25
17,G17A A90C C101A C114G,-5.04
18,A16G G77A C85G,-3.69
19,A16G G44A C97G U112C U133A,-4.45
20,A16G G52A U116C,0.826
21,G17A C49G A50G U106A,-3.86
22,A16U A29U U30A A41C C49G A90G G120C,-6.59
23,A16G G48A U126G,-4.19
24,A16U G42U C53G G71A G120A,-2.89

row,Variant,polymerase ribozyme fitness (log ratio)
1,G17C A41U U130A,-4.18
2,A16U A18U U133A,-4.63
3,G17U G69U A84C C124A,1.63
4,G17A U116C G120U,-5.7
5,G17A G60U C97U,-4.13
6,G17A A37U A50C,-4.99
7,G17A C53A A90G A95U,-3.77
8,G17U G19U G69U A84U G93A,-4.27
9,G17C G47A A95U,-5.58
10,G17A U54C G120U,-1.75
11,G17C C72U U78G U116A A119C G120A,-5.61
12,G17A C20U G57C G61A,-4.32
13,A16U G17A G93A,-4.25
14,A16G G61C,-2.19
15,A16U G47C C49U G61C C82G C89U A91G C115A,-7.61
16,A16U C34A U109G C123A U129G,-5.83
17,G17A G48U G69C C88G,-5.4
18,G17U C20U C49A C73G C115A,-1.32
19,G17A G61A C114G C124A,-3.95
20,A16U A18U,-3.06
21,G17A A90C,-3.17
22,G17A G48C,-4.15
23,A16U C124A,-0.305
24,G17U C72U C89A,-3.71

row,Variant,polymerase ribozyme fitness (log ratio)
1,G17C U21A G39A C72A U112C C115A,-0.984
2,G17A U116C,-3.7
3,G17C C20A G63U,-4.87
4,A16U U59G G69A U96C,-4.5
5,G17U C62G A83U C123G,-5.79
6,G17U G42U G45A G69C U81G C86A C94U C99A A121C,-6.32
7,G17A G71U G122A,-4.15
8,G17C A18U C40U C56G C70G A108G A111U,-7.19
9,A16U C102A,-3.35
10,G17A A95U,-3.81
11,G17C G77U A91U C123A U132A,-3.88
12,A16U C22U,-3.56
13,G17U G48U C115G G120A,-1.53
14,A16G C64U G77U,-1.55
15,A16U A24G C115G,-6.98
16,G17U G60C A121G,-0.0519
17,G17U G48A A50U G61C G93A U106A,-5.21
18,G17C U38G C70G A95C C99A C104U A105G G110C,-6.76
19,G17U A37C C53A A83U A90U A91C,-3.91
20,G17U G52C C72U,-2.43
21,A16U C73U A121C,0.586
22,G17A C20A G61C A119U C124A,-5.19
23,G17A A75G C89A A90G,-3.23
